Reference: paper PMC10404369, “Epithelial cell adhesion molecule (EpCAM) regulates HGFR signaling to promote colon cancer progression and metastasis” (Journal of Translational Medicine, 2023)
Each block holds one binder with its values, some of them ahead of it.

Tests used:
[1] = target: T1, HGFRECD-His recombinant protein (human, UniProt P08581 25-932); assay: ELISA; HGFR-His recombinant protein (2 μg/ml) added to plates coated with EGF-like-domain deletion mutant-Fc (1 μg/ml); TMB colorimetric peroxidase assay; conditions: both partners purified
T1 construct: human HGFR (c-MET) recombinant protein, extracellular domain; also called HGFR-His; HGFR-His recombinant protein; source: bought: Sino Biological

[2] = target: T1, HGFRECD-His recombinant protein; assay: pull-down; EpEX-Fc and HGFR-His recombinant protein (2.5 μg/ml); IP with Dynabeads Protein G, Western blotting with anti-6× His tag antibody; conditions: both partners purified

T1 sequence (P08581 25-932): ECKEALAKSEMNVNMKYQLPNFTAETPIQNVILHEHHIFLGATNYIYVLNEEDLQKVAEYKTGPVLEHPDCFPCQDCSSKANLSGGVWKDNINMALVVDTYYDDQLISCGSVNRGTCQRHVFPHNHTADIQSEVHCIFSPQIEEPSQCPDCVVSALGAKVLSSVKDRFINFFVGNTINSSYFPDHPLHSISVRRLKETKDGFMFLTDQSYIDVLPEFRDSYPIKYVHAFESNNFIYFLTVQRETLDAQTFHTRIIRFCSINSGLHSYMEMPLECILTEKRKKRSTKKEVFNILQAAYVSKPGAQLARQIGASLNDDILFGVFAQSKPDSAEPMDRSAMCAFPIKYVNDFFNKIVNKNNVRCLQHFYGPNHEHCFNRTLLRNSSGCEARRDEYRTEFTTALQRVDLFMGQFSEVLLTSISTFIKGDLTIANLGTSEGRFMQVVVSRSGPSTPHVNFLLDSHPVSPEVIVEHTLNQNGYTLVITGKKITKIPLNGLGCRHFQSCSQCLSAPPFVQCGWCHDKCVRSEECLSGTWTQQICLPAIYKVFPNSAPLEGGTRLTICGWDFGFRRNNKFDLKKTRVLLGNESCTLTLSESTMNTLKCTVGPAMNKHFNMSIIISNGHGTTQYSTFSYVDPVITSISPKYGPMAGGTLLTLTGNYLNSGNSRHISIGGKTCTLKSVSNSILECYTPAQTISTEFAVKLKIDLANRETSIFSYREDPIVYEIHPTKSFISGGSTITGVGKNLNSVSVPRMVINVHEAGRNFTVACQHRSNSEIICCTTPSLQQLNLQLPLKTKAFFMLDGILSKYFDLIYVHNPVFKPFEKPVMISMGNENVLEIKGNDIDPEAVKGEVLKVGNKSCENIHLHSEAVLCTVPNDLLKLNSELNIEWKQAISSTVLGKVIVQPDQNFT

binding result [1]: binds
B1: EpEX_(ΔEGFI)-Fc (Fc fusion, human, UniProt P16422 24-265, looked up)
chain: QEESKLAAKCLVMKAEMNGSKLGRRAKPEGALQNNDGLYDPDCDESGLFKAKQCNGTSMCWCVNTAGVRRTDKDTEITCSERVRTYWIIIELKHKAREKPYDSKSLRTALQKEITTRYQLDPKFITSILYENNVITIDLVQNSSQKTQNDVDIADVAYYFEKDVKGESLFHSKKMDLTVNGEQLDLDPGQTLIYYVDEKAPEFSMQGLK
notes: EpEX, extracellular domain of EpCAM, with EGF-like domain I (amino acids 27–59) deleted; also called EGF-like-domain deletion mutant-Fc

binding result [1]: binds
B2: EpEX_(ΔEGFII)-Fc (Fc fusion, human, UniProt P16422 24-265, looked up)
chain: QEECVCENYKLAVNCFVNNNRQCQCTSVGAQNTVICSKLAAKSERVRTYWIIIELKHKAREKPYDSKSLRTALQKEITTRYQLDPKFITSILYENNVITIDLVQNSSQKTQNDVDIADVAYYFEKDVKGESLFHSKKMDLTVNGEQLDLDPGQTLIYYVDEKAPEFSMQGLK
notes: EpEX, extracellular domain of EpCAM, with EGF-like domain II (amino acids 66–135) deleted; also called EGF-like-domain deletion mutant-Fc

binding result [2]: binds
B3: EpEX-Fc recombinant protein (Fc fusion, human, UniProt P16422 24-265, looked up)
chain: QEECVCENYKLAVNCFVNNNRQCQCTSVGAQNTVICSKLAAKCLVMKAEMNGSKLGRRAKPEGALQNNDGLYDPDCDESGLFKAKQCNGTSMCWCVNTAGVRRTDKDTEITCSERVRTYWIIIELKHKAREKPYDSKSLRTALQKEITTRYQLDPKFITSILYENNVITIDLVQNSSQKTQNDVDIADVAYYFEKDVKGESLFHSKKMDLTVNGEQLDLDPGQTLIYYVDEKAPEFSMQGLK
notes: also called recombinant EpEX-Fc
